The values that follow come from PMC8131196, “Structure and dynamics of a mycobacterial type VII secretion system” (Nature, 2021).

B1: EccC5 (natural protein)
chain: MKRGFARPTPEKPPVIKPENIVLSTPLSIPPPEGKPWWLIVVGVVVVGLLGGMVAMVFASGSHVFGGIGSIFPLFMMVGIMMMMFRGMGGGQQQMSRPKLDAMRAQFMLMLDMLRETAQESADSMDANYRWFHPAPNTLAAAVGSPRMWERKPDGKDLNFGVVRVGVGMTRPEVTWGEPQNMPTDIELEPVTGKALQEFGRYQSVVYNLPKMVSLLVEPWYALVGEREQVLGLMRAIICQLAFSHGPDHVQMIVVSSDLDQWDWVKWLPHFGDSRRHDAAGNARMVYTSVREFAAEQAELFAGRGSFTPRHASSSAQTPTPHTVIIADVDDPQWEYVISAEGVDGVTFFDLTGSSMWTDIPERKLQFDKTGVIEALPRDRDTWMVIDDKAWFFALTDQVSIAEAEEFAQKLAQWRLAEAYEEIGQRVAHIGARDILSYYGIDDPGNIDFDSLWASRTDTMGRSRLRAPFGNRSDNGELLFLDMKSLDEGGDGPHGVMSGTTGSGKSTLVRTVIESLMLSHPPEELQFVLADLKGGSAVKPFAGVPHVSRIITDLEEDQALMERFLDALWGEIARRKAICDSAGVDDAKEYNSVRARMRARGQDMAPLPMLVVVIDEFYEWFRIMPTAVDVLDSIGRQGRAYWIHLMMASQTIESRAEKLMENMGYRLVLKARTAGAAQAAGVPNAVNLPAQAGLGYFRKSLEDIIRFQAEFLWRDYFQPGVSIDGEEAPALVHSIDYIRPQLFTNSFTPLEVSVGGPDIEPVVAQPNGEVLESDDIEGGEDEDEEGVRTPKVGTVIIDQLRKIKFEPYRLWQPPLTQPVAIDDLVNRFLGRPWHKEYGSACNLVFPIGIIDRPYKHDQPPWTVDTSGPGANVLILGAGGSGKTTALQTLICSAALTHTPQQVQFYCLAYSSTALTTVSRIPHVGEVAGPTDPYGVRRTVAELLALVRERKRSFLECGIASMEMFRRRKFGGEAGPVPDDGFGDVYLVIDNYRALAEENEVLIEQVNVIINQGPSFGVHVVVTADRESELRPPVRSGFGSRIELRLAAVEDAKLVRSRFAKDVPVKPGRGMVAVNYVRLDSDPQAGLHTLVARPALGSTPDNVFECDSVVAAVSRLTSAQAPPVRRLPARFGVEQVRELASRDTRQGVGAGGIAWAISELDLAPVYLNFAENSHLMVTGRRECGRTTTLATIMSEIGRLYAPGASSAPPPAPGRPSAQVWLVDPRRQLLTALGSDYVERFAYNLDGVVAMMGELAAALAGREPPPGLSAEELLSRSWWSGPEIFLIVDDIQQLPPGFDSPLHKAVPFVNRAADVGLHVIVTRTFGGWSSAGSDPMLRALHQANAPLLVMDADPDEGFIRGKMKGGPLPRGRGLLMAEDTGVFVQVAATEVRR
notes: also called EccC5 ATPase; not shown: TwinStrep, C-terminal, kept
B2: MycP5 protease (enzyme)
chain: ISPPTIDPGALPPDGPPGPLAPMKQNAYCTEVGVLPGTDFQLQPKYMEMLNLNEAWQFGRGDGVKVAVIDTGVTPHPRLPRLIPGGDYVMAGGDGLSDCDAHGTLVASMIAAVPANGAVPLPSVPRRPVTIPTTETPPPPQTVTLSPVPPQTVTVIPAPPPEEGVPPGAPVPGPEPPPAPGPQPPAVDRGGGTVTVPSYSGGRKIAPIDNPRNPHPSAPSPALGPPPDAFSGIAPGVEIISIRQSSQAFGLKDPYTGDEDPQTAQKIDNVETMARAIVHAANMGASVINISDVMCMSARNVIDQRALGAAVHYAAVDKDAVIVAAAGDGSKKDCKQNPIFDPLQPDDPRAWNAVTTVVTPSWFHDYVLTVGAVDANGQPLSKMSIAGPWVSISAPGTDVVGLSPRDDGLINAIDGPDNSLLVPAGTSFSAAIVSGVAALVRAKFPELSAYQIINRLIHTARPPARGVDNQVGYGVVDPVAALTWDVPKGPAEPPKQLSAPLVVPQPPAPRDMVPIWVAAGGLAGALLIGGAVFGTATLMRRSRKQQ
notes: also called mycosin

Common to all, as to assay: cryo-EM structure
The series “cryo-EM structure” concerns the molecule itself.
The series “EccC5” addresses B1. To be noted: both partners purified.
In the series “MycP5 protease” the target is B2. The conditions noted are these: both partners purified.

As for B1, the binding result in “cryo-EM structure” is given as “binds”.
For the molecule B2, the “stoichiometry N” value in “cryo-EM structure” stood at 3.

B3: EccB5 (natural protein)
chain: MAEESRGQRGSGYGLGLSTRTQVTGYQFLARRTAMALTRWRVRMEIEPGRRQTLAVVASVSAALVICLGALLWSFISPSGQLNESPIIADRDSGALYVRVGDRLYPALNLASARLITGRPDNPHLVRSSQIATMPRGPLVGIPGAPSSFSPKSPPASSWLVCDTVATSSSIGSLQGVTVTVIDGTPDLTGHRQILSGSDAVVLRYGGDAWVIREGRRSRIEPTNRAVLLPLGLTPEQVSQARPMSRALFDALPVGPELLVPEVPNAGGPATFPGAPGPIGTVIVTPQISGPQQYSLVLGDGVQTLPPLVAQILQNAGSAGNTKPLTVEPSTLAKMPVVNRLDLSAYPDNPLEVVDIREHPSTCWWWERTAGENRARVRVVSGPTIPVAATEMNKVVSLVKADTSGRQADQVYFGPDHANFVAVTGNNPGAQTSESLWWVTDAGARFGVEDSKEARDALGLTLTPSLAPWVALRLLPQGPTLSRADALVEHDTLPMDMTPAELVVPK
notes: also called inner EccB5; outer EccB5
As to B3, the binding result with EccC5 and with MycP5 protease was “binds” in each case. Besides, the “stoichiometry N” value in the series “cryo-EM structure” was determined as 6.
